Source: US20250188146A1

Legend:
[1] = molecular target: CLDN18.2 on KATO III-18.2+ cells (UniProt P56856); assay: cell-based or functional assay
CD19 = CD19 (UniProt P15391); assay: cell-based or functional assay
Sequence of CD19 (P15391 20-556 limits assumed): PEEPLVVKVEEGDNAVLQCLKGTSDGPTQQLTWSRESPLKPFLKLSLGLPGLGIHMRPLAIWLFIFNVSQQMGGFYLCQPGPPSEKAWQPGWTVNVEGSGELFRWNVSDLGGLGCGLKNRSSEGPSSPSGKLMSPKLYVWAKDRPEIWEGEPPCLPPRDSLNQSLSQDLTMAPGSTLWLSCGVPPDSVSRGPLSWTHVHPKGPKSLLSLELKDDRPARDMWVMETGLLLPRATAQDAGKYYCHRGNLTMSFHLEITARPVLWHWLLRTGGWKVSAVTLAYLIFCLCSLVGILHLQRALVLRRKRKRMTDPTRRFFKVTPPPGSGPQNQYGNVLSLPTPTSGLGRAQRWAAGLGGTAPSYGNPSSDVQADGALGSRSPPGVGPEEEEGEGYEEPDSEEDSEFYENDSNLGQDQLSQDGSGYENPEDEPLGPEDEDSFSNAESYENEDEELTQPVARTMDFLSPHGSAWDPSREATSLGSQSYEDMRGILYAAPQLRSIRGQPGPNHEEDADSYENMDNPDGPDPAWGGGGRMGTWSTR

B1: 18.2 CAR (protein, part only; not given: Hinge, transmembrane and signaling domains, part only)
chain, part: DIVMTQSPSSLTVTAGEKVTMSCKSSQSLLNSGNQKNYLTWYQQKPGQPPKLLIYWASTRESGVPDRFTGSGSGTDFTLTISSVQAEDLAVYYCQNDYSYPFTFGSGTKLEIKGGGGSGGGGSGGGGSQVQLQQPGAELVRPGASVKLSCKASGYTFTSYWINWVKQRPGQGLEWIGNIYPSDSYTNYNQKFKDKATLTVDKSSSTAYMQLSSPTSEDSAVYYCTRSWRGNSFDYWGQGTTLTVSS
CD137 expression of CAR T CD8+ cells, co-culture 48 h with KATO III-18.2+ [1]: 8.77%

B2: CD19 CAR with humanized CD19 scFv (binding domain SEQ ID NO: 5) (protein, not shown: a dimerising Fc or GST)
chain: DIQMTQSPSSLSASVGDRVTITCRASQDISKYLNWYQQKPGKAPKLLIYHTSRLHSGVPSRFSGSGSGTDFTLTISSLQPEDFATYYCQQGNTLPYTFGQGTKVEIKGGGGSGGGGSGGGGSEVQLVESGGGLVQPGGSLRLSCAASGVSLPDYGVSWVRQAPGKGLEWVSVIWGSETTYYNSALKSRFTISRDNAKNSLYLQMNSLRAEDTAVYYCAKHYYYGGSYAMDYWGQGTLVTVSS
CD25, hCAR+ cells; K19 co-culture 24 h; PBMC+, IL6+, IL15- (CD19): 48.3% | CD25, hCAR+ cells; K19 co-culture 24 h; PBMC+, IL6-, IL15- (CD19): 53% | CD25, hCAR+ cells; K19 co-culture 24 h; PBMC-, IL6+, IL15- (CD19): 52.3% | CD25, hCAR+ cells; K19 co-culture 24 h; PBMC-, IL6-, IL15+ (CD19): 57.1% | CD25, hCAR+ cells; K19 co-culture 24 h; PBMC-, IL6-, IL15- (CD19): 53.1% | CD25, hCAR+ cells; K19 co-culture 48 h; PBMC+, IL6+, IL15- (CD19): 34.2% | CD25, hCAR+ cells; K19 co-culture 48 h; PBMC+, IL6-, IL15- (CD19): 35.8% | CD25, hCAR+ cells; K19 co-culture 48 h; PBMC-, IL6+, IL15- (CD19): 39.1% | CD25, hCAR+ cells; K19 co-culture 48 h; PBMC-, IL6-, IL15+ (CD19): 43.4% | CD25, hCAR+ cells; K19 co-culture 48 h; PBMC-, IL6-, IL15- (CD19): 41.5% | CD25 MFI, hCAR+ cells; K19 co-culture 24 h; PBMC+, IL6+, IL15- (CD19): 6740 MFI | CD25 MFI, hCAR+ cells; K19 co-culture 24 h; PBMC+, IL6-, IL15- (CD19): 7080 MFI | CD25 MFI, hCAR+ cells; K19 co-culture 24 h; PBMC-, IL6+, IL15- (CD19): 6480 MFI | CD25 MFI, hCAR+ cells; K19 co-culture 24 h; PBMC-, IL6-, IL15+ (CD19): 6060 MFI | CD25 MFI, hCAR+ cells; K19 co-culture 24 h; PBMC-, IL6-, IL15- (CD19): 6200 MFI | CD25 MFI, hCAR+ cells; K19 co-culture 48 h; PBMC+, IL6+, IL15- (CD19): 11200 MFI | CD25 MFI, hCAR+ cells; K19 co-culture 48 h; PBMC+, IL6-, IL15- (CD19): 11800 MFI | CD25 MFI, hCAR+ cells; K19 co-culture 48 h; PBMC-, IL6+, IL15- (CD19): 12300 MFI | CD25 MFI, hCAR+ cells; K19 co-culture 48 h; PBMC-, IL6-, IL15+ (CD19): 11400 MFI | CD25 MFI, hCAR+ cells; K19 co-culture 48 h; PBMC-, IL6-, IL15- (CD19): 11100 MFI | CD137, hCAR+ cells; K19 co-culture 24 h; PBMC+, IL6+, IL15- (CD19): 35.6% | CD137, hCAR+ cells; K19 co-culture 24 h; PBMC+, IL6-, IL15- (CD19): 39.9% | CD137, hCAR+ cells; K19 co-culture 24 h; PBMC-, IL6+, IL15- (CD19): 55.8% | CD137, hCAR+ cells; K19 co-culture 24 h; PBMC-, IL6-, IL15+ (CD19): 62.1% | CD137, hCAR+ cells; K19 co-culture 24 h; PBMC-, IL6-, IL15- (CD19): 57.4% | CD137, hCAR+ cells; K19 co-culture 48 h; PBMC+, IL6+, IL15- (CD19): 28% | CD137, hCAR+ cells; K19 co-culture 48 h; PBMC+, IL6-, IL15- (CD19): 47.1% | CD137, hCAR+ cells; K19 co-culture 48 h; PBMC-, IL6+, IL15- (CD19): 57.6% | CD137, hCAR+ cells; K19 co-culture 48 h; PBMC-, IL6-, IL15+ (CD19): 58.6% | CD137, hCAR+ cells; K19 co-culture 48 h; PBMC-, IL6-, IL15- (CD19): 57.3% | CD137MFI, hCAR+ cells; K19 co-culture 24 h; PBMC+, IL6+, IL15- (CD19): 18100 MFI | CD137MFI, hCAR+ cells; K19 co-culture 24 h; PBMC+, IL6-, IL15- (CD19): 19000 MFI | CD137MFI, hCAR+ cells; K19 co-culture 24 h; PBMC-, IL6+, IL15- (CD19): 23400 MFI | CD137MFI, hCAR+ cells; K19 co-culture 24 h; PBMC-, IL6-, IL15+ (CD19): 25500 MFI | CD137MFI, hCAR+ cells; K19 co-culture 24 h; PBMC-, IL6-, IL15- (CD19): 26800 MFI | CD137MFI, hCAR+ cells; K19 co-culture 48 h; PBMC+, IL6+, IL15- (CD19): 43000 MFI | CD137MFI, hCAR+ cells; K19 co-culture 48 h; PBMC+, IL6-, IL15- (CD19): 24800 MFI | CD137MFI, hCAR+ cells; K19 co-culture 48 h; PBMC-, IL6+, IL15- (CD19): 51500 MFI | CD137MFI, hCAR+ cells; K19 co-culture 48 h; PBMC-, IL6-, IL15+ (CD19): 51900 MFI | CD137MFI, hCAR+ cells; K19 co-culture 48 h; PBMC-, IL6-, IL15- (CD19): 52600 MFI | CD137 expression of CAR T CD8+ cells, co-culture 48 h with Nalm-6 (CD19): 11.1% | IFN-γ release, background subtracted; K19 co-culture 24 h; PBMC+, IL6+, IL15- (CD19): 64300 | IFN-γ release, background subtracted; K19 co-culture 24 h; PBMC+, IL6-, IL15- (CD19): 64800 | IFN-γ release, background subtracted; K19 co-culture 24 h; PBMC-, IL6+, IL15- (CD19): 19200 | IFN-γ release, background subtracted; K19 co-culture 24 h; PBMC-, IL6-, IL15+ (CD19): 21300 | IFN-γ release, background subtracted; K19 co-culture 24 h; PBMC-, IL6-, IL15- (CD19): 16000 | IFN-γ release, background subtracted; K19 co-culture 48 h; PBMC+, IL6+, IL15- (CD19): 152000 | IFN-γ release, background subtracted; K19 co-culture 48 h; PBMC+, IL6-, IL15- (CD19): 160000 | IFN-γ release, background subtracted; K19 co-culture 48 h; PBMC-, IL6+, IL15- (CD19): 120000 | IFN-γ release, background subtracted; K19 co-culture 48 h; PBMC-, IL6-, IL15+ (CD19): 134000 | IFN-γ release, background subtracted; K19 co-culture 48 h; PBMC-, IL6-, IL15- (CD19): 114000
